Reference: patent US20200347137A1 (SYSTIMMUNE, published 2020)
Numbering of substitutions follows the chain as printed. Values belong to the binder of their own block, whether it stands above or below them.

Columns and labels:
[1] = target: T1, PD-L1 recombinant protein (human, UniProt Q9NZQ7 19-238, limits assumed); assay: ForteBio Octet RED96, PD-L1 immobilised, antibody in solution
T1 construct: also called PD-L1 antigen
Description: The antigen was immobilized on the sensor chip surface and the tested antibodies were flown over the immobilized antigens.

[2] = target: T2, PD-1 antigen expressed on the surface of cells (human, UniProt Q15116 25-288); assay: Flow cytometry on CHO cells expressing PD-1, Alexa Fluor 647 anti-human secondary. The value is printed beside the curves without a name; the text speaks of a KD. It is assigned to the lower, right curve (triangles) by its position.
T2 construct: whole, on cells; also called PD-1 receptor; CHO cell line expressing PD-1 antigen
T2 sequence (Q15116 25-288): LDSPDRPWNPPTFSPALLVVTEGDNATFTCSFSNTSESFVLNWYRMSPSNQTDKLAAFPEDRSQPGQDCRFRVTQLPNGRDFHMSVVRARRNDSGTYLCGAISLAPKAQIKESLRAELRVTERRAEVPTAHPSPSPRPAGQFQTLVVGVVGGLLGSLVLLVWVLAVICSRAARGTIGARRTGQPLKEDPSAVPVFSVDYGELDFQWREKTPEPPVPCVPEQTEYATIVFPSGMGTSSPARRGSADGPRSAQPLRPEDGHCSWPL
Procedure: (§1) Binding of the bispecific antibodies and their components to PD-1 antigen expressed on the surface of CHO cell line was assessed using FACS method. The bispecific antibodies were incubated with CHO cell line expressing PD-1 antigen and then detected with secondary anti-human antibodies directly conjugated to Alexa Fluor 647 fluorochrome. Cellular binding of the test antibodies was analyzed on a flow cytometer BD LSRFortessa.

[3] = target: T2, PD-1 antigen expressed on the surface …; assay: Flow cytometry on CHO cells expressing PD-1, Alexa Fluor 647 anti-human secondary
Procedure: as §1

[4] = target: PD-L1 on CHO-PD-L1 cell line (human, UniProt Q9NZQ7 19-290); assay: cell-based or functional assay
Sequence of PD-L1 on CHO-PD-L1 cell line (Q9NZQ7 19-290): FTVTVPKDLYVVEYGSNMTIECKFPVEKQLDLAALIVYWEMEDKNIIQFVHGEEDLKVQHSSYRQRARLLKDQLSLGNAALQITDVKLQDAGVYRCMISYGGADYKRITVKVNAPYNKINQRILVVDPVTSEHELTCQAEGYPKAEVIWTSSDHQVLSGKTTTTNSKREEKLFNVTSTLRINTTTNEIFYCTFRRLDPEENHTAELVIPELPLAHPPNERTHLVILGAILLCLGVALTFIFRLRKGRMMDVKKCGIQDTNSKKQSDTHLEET

T1 sequence (Q9NZQ7 19-238 limits assumed): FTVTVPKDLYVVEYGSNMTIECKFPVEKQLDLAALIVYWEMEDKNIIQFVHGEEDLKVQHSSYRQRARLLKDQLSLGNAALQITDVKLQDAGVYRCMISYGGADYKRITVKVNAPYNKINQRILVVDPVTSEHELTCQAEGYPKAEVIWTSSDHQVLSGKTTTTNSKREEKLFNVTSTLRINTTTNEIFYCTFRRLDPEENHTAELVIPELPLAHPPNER

Kd [1]: 1540 pM
koff [1]: 0.000471 s⁻¹
kon [1]: 307000 M⁻¹ s⁻¹
B2: PL004B9 Fc-scFv (Fc fusion, not shown: a dimerising Fc or GST; small tags and cut ends)
scFv: EVQLVESGGGLVQPGGSLRLSCTVSGIDLSVINMGWVRQAPGKGLEWIGTITYVGNTYYASWAKGRFTISKTSTTVDLKITSPTTEDTAVYYCARESGTIYYSYFNLWGQGTLVTVSSGGGGSGGGGSGGGGSGGGGSAFELTQSPSSLSASVGDRVTIKCQASESISNYLSWYQQIPGKVPKLLIYYASNLASGVPSRFSGSGSGTDFTLTISSLQPEDVATYYCQSYYGGGSAYTFGGGTKVEIK
notes: scFv at the C-terminus of an Fc

Kd [1]: 412 pM
koff [1]: 0.000171 s⁻¹
kon [1]: 414000 M⁻¹ s⁻¹
B3: PL221G5 Fc-scFv (Fc fusion)
scFv: EVQLLESGGGLVQPGGSLRLSCAASGFSFSSGYDMCWVRQAPGKGLEWIACIAAGSAGITYDANWAKGRFTISRDNSKNTLYLQMNSLRAEDTAVYYCARSAFSFDYAMDLWGQGTLVTVSSGGGGSGGGGSGGGGSGGGGSDIQMTQSPSTLSASVGDRVTITCQASQSISSHLNWYQQKPGKAPKLLIYKASTLASGVPSRFSGSGSGTEFTLTISSLQPDDFATYYCQQGYSWGNVDNVFGGGTKVEIK
notes: scFv at the C-terminus of an Fc; The Fc part is not specified; not shown: The Fc part and the linker joining it to the scFv

EC50 (read off the curve), NFAT-luciferase reporter, Jurkat PD-1 cells with CHO-PD-L1 cells [4]: ~300 pM
B8: PL221G5 IgG1 null (antibody, V domains shown)
VH: EVQLLESGGGLVQPGGSLRLSCAASGFSFSSGYDMCWVRQAPGKGLEWIACIAAGSAGITYDANWAKGRFTISRDNSKNTLYLQMNSLRAEDTAVYYCARSAFSFDYAMDLWGQGTLVTVSS
VL: DIQMTQSPSTLSASVGDRVTITCQASQSISSHLNWYQQKPGKAPKLLIYKASTLASGVPSRFSGSGSGTEFTLTISSLQPDDFATYYCQQGYSWGNVDNVFGGGTKVEIKR

Kd [1]: 483 pM
koff [1]: 0.000276 s⁻¹
kon [1]: 572000 M⁻¹ s⁻¹
B9: PL221G5 mAb (antibody, V domains shown)
VH: B8 VH
VL: DIQMTQSPSTLSASVGDRVTITCQASQSISSHLNWYQQKPGKAPKLLIYKASTLASGVPSRFSGSGSGTEFTLTISSLQPDDFATYYCQQGYSWGNVDNVFGGGTKVEIK
notes: Anti-PD-L1 clone tested in mAb format

The remaining lines, values behind:

B1: PL230C6 Fc-scFv (Fc fusion)
scFv: QSVEESGGGLVQPGGSLRLSCTASGIDLNTYDMIWVRQAPGKGLEWVGIITYSGSRYYANWAKGRFTISKDNTKNTVYLQMNSLRAEDTAVYYCARDYMSGSHLWGQGTLVTVSSGGGGSGGGGSGGGGSGGGGSAYDMTQSPSSVSASVGDRVTIKCQASEDIYSFLAWYQQKPGKAPKLLIHSASSLASGVPSRFSGSGSGTDFTLTISSLQPEDFATYYCQQGYGKNNVDNAFGGGTKVEIK
notes: scFv at the C-terminus of an Fc; The Fc part is not specified; also called PL23006; not shown: The Fc part and the linker joining it to the scFv
Kd [1]: 868 pM
koff [1]: 0.000362 s⁻¹
kon [1]: 418000 M⁻¹ s⁻¹

B4: PL004B9 mAb (antibody, V domains shown)
VH: EVQLVESGGGLVQPGGSLRLSCTVSGIDLSVINMGWVRQAPGKGLEWIGTITYVGNTYYASWAKGRFTISKTSTTVDLKITSPTTEDTAVYYCARESGTIYYSYFNLWGQGTLVTVSS
VL: AFELTQSPSSLSASVGDRVTIKCQASESISNYLSWYQQIPGKVPKLLIYYASNLASGVPSRFSGSGSGTDFTLTISSLQPEDVATYYCQSYYGGGSAYTFGGGTKVEIK
notes: as for B9
Kd [1]: 1370 pM
koff [1]: 0.000695 s⁻¹
kon [1]: 508000 M⁻¹ s⁻¹

B5: Fc-PD224D1 scFv IgG1 null (Fc fusion, not shown: a dimerising Fc or GST; small tags and cut ends)
scFv: EVQLVESGGGLVQPGGSLRLSCTASGFSLSSYAMSWVRQAPGKGLEYIGYIGDTTGIAYASWANGRFTISKDNTKNTVDLQMNSLRAEDTAVYYCARGWSYLDIWGQGTLVTVSSGGGGSGGGGSGGGGSGGGGSALVMTQSPSSLSASVGDRVTITCQASQNIYSNLAWYQQKPGKVPKLLIYQASTLASGVPSRFSGSGYGTDFTLTISSLQPEDVATYYCQGGYYSAALNTFGGGTKVEIK
notes: a component control of the bispecific antibody
Kd [2]: 1040 pM
EC50 (read off the curve) [3]: ~1000 pM

B6: PL230C6 mAb (antibody, V domains shown)
VH: QSVEESGGGLVQPGGSLRLSCTASGIDLNTYDMIWVRQAPGKGLEWVGIITYSGSRYYANWAKGRFTISKDNTKNTVYLQMNSLRAEDTAVYYCARDYMSGSHLWGQGTLVTVSS
VL: AYDMTQSPSSVSASVGDRVTIKCQASEDIYSFLAWYQQKPGKAPKLLIHSASSLASGVPSRFSGSGSGTDFTLTISSLQPEDFATYYCQQGYGKNNVDNAFGGGTKVEIK
notes: also called PL23006
Kd [1]: 769 pM
koff [1]: 0.000468 s⁻¹
kon [1]: 609000 M⁻¹ s⁻¹

B7: PL231H2 mAb (antibody, V domains shown)
VH: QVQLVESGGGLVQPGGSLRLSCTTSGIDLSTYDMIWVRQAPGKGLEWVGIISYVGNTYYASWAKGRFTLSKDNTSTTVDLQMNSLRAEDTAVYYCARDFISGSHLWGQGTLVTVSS
VL: B6 VL with K22N, D28S, Y30S, A34S, H49F, S53T, G93S, N95S
notes: as for B9
Kd [1]: 781 pM
koff [1]: 0.000391 s⁻¹
kon [1]: 501000 M⁻¹ s⁻¹
